US20230322924A1 (Janssen / Centocor, published 2023)

T1: TMEW1 (TMEFF2-FL-ECD-His-Avitag) (human, UniProt Q9UIK5 41-320)
T1 construct: Human TMEFF2 ECD with C-terminal G3S, 6xHis tag and Avi-tag, all in the entry; also called TMEFF2 ECD
T1 sequence: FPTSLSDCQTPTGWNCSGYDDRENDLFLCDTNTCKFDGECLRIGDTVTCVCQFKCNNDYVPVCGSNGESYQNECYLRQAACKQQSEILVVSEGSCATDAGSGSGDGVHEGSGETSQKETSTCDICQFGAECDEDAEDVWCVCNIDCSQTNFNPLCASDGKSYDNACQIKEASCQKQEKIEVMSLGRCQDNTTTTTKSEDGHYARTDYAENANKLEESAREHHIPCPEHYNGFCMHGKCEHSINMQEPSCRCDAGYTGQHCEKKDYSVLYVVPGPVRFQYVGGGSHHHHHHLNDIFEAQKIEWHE

T2: rh-CD19 (UniProt P15391 20-291, limits assumed)
T2 sequence (looked up): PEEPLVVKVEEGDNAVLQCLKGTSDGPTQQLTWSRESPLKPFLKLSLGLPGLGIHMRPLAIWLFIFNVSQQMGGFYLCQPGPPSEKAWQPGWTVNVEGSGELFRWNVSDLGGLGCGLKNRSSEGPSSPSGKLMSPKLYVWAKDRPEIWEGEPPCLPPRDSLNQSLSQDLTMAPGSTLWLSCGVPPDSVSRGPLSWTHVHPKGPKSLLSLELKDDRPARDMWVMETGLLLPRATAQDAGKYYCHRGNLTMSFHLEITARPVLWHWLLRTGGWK

T3: human TMEFF2 extracellular domain (ECD) (human, UniProt Q9UIK5 41-320)
T3 construct: also called TMEFF2-ECD
T3 sequence: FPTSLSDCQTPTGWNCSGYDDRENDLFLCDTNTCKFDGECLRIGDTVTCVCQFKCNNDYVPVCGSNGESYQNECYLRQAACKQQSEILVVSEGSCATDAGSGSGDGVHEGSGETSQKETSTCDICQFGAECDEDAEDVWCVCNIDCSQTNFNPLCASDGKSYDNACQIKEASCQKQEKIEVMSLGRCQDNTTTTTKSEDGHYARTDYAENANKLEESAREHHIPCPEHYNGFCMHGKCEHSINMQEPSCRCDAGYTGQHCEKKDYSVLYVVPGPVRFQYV

T4: Soy Trypsin Inhibitor (soy, UniProt P01070 25-205)
T4 construct: also called STI
T4 sequence (looked up): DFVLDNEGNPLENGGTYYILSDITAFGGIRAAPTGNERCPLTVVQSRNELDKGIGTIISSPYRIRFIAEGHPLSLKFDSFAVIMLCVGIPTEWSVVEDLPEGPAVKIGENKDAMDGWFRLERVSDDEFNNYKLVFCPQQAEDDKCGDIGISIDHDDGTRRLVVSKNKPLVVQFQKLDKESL

B1: TMEB762 (antibody, human IgG4 S228P, kappa, F234A L235A, V domains shown)
VH: EVQLLESGGGLVQPGGSLRLSCAASGFTFSSYSMSWVRQAPGKGLEWVSVISGSGGFTDYADSVKGRFTISRDNSKNTLYLQMNSLRAEDTAVYYCARMPLNSPHDYWGQGTLVTVSS
VL: DIQMTQSPSSLSASVGDRVTITCRASQGIRNDLGWYQQKPGKAPKLLIYAASSLQSGVPSRFSGSGSGTDFTLTISSLQPEDFATYYCLQDYNYPLTFGGGTKVEIKR
notes: IgG4 PAA anti-TMEFF2; re-engineered variant of TMEB675; also called TMEH459/DL3L129
B2: TMCB150 (bispecific antibody, human IgG4 S228P, kappa, lambda, F234A L235A)
heavy 1: not shown
light 1: not shown
heavy 2: QVQLQQSGPRLVRPSQTLSLTCAISGDSVFNNNAAWSWIRQSPSRGLEWLGRTYYRSKWLYDYAVSVKSRITVNPDTSRNQFTLQLNSVTPEDTALYYCARGYSSSFDYWGQGTLVTVSSASTKGPSVFPLAPCSRSTSESTAALGCLVKDYFPEPVTVSWNSGALTSGVHTFPAVLQSSGLYSLSSVVTVPSSSLGTKTYTCNVDHKPSNTKVDKRVESKYGPPCPPCPAPEAAGGPSVFLFPPKPKDTLMISRTPEVTCVVVDVSQEDPEVQFNWYVDGVEVHNAKTKPREEQFNSTYRVVSVLTVLHQDWLNGKEYKCKVSNKGLPSSIEKTISKAKGQPREPQVYTLPPSQEEMTKNQVSLTCLVKGFYPSDIAVEWESNGQPENNYKTTPPVLDSDGSFLLYSKLTVDKSRWQEGNVFSCSVMHEALHNHYTQKSLSLSLGK
light 2: QSALTQPASVSGSPGQSITISCTGTSSNIGTYKFVSWYQQHPDKAPKVLLYEVSKRPSGVSSRFSGSKSGNTASLTISGLQAEDQADYHCVSYAGSGTLLFGGGTKLTVLGQPKAAPSVTLFPPSSEELQANKATLVCLISDFYPGAVTVAWKADSSPVKAGVETTTPSKQSNNKYAASSYLSLTPEQWKSHRSYSCQVTHEGSTVEKTVAPTECS
notes: IgG4 PAA bispecific by Fab-arm exchange; also called TMEB762 x CD3B376
B3: C33B836 (antibody, IgG4, V domains shown)
VH: QVQLVQSGSELRKPGASVKVSCKASGYTFTNYAMNWVRQAPGQGLEWMGWINTNTGNPTYAQGFTGRFVFSLDTSVSSAYLQISSLKAEDTAMYYCATDRDRGTDYWGQGTLVTVSS
VL: QSALTQPASVSGSPGQSITISCTGTSSDVGDYNYVSWYQQHPGKVPKLMIYDVSNRPSGVSNRFSGSMSGNTASLTISGLQAEDEADYYCSSYSSSSALEVFGGGTKLTVL
notes: OMNIRat-derived; same V regions as C33B48; also called C33H80/C33L73; C33F53
B4: D43G/V48L/L49M/L50I/S62N/Q85E/H89Y LC (with WT HC) (antibody, V domains shown)
VH: QVQLQQSGPRLVRPSQTLSLTCAISGDSVFNNNAAWSWIRQSPSRGLEWLGRTYYRSKWLYDYAVSVKSRITVNPDTSRNQFTLQLNSVTPEDTALYYCARGYSSSFDYWGQGTLVTVSS
VL: QSALTQPASVSGSPGQSITISCTGTSSNIGTYKFVSWYQQHPGKAPKLMIYEVSKRPSGVSNRFSGSKSGNTASLTISGLQAEDEADYYCCSYAGSGTLLFGGGTKLTVL
notes: also called BLW-2E6 variant CD3H219/CD3L136
B5: CD3B376 (antibody, human IgG4 S228P, lambda, F234A L235A, V domains shown)
VH: B4 VH
VL: QSALTQPASVSGSPGQSITISCTGTSSNIGTYKFVSWYQQHPDKAPKVLLYEVSKRPSGVSSRFSGSKSGNTASLTISGLQAEDQADYHCVSYAGSGTLLFGGGTKLTVLG
notes: Bivalent anti-CD3 parental mAb, IgG4 PAA with F405L and R409K; also called CD3H219/CD3L150

How the values were obtained:
[1] = target: T1, TMEW1 (TMEFF2-FL-ECD-His-Avitag); test: Biacore 8K SPR, mAb captured on anti-human Fc, single cycle kinetics
Procedure: The binding of anti-TMEFF2 mAbs to human TMEFF2 ECD was measured by Biacore 8K SPR. The format of the assay was to capture the mAbs using a high density anti-human Fc surface, then inject human TMEFF2 concentration titration using a single cycle kinetics method. […] The mAbs were captured on the anti-human Fc IgG surface at 0.5 μg/ml (˜200-300 RU) on flow cell 2. The running buffer was then changed to HBSP+100 ug/ml BSA. TMEFF2 ECD at 30 nM concentration in 3-fold dilution series was injected from low to high concentration using single cycle kinetics method. The off-rate was monitored 30 minutes after the last or highest concentration injection and then the surface was regenerated using 0.8% phosphoric acid (Bio-Rad). A buffer blank run, capturing the same mAbs and using the same conditions of sample run was also completed. The raw data were processed by subtracting two sets of reference data from the response data: 1) reference flow cell 1 subtracted from sample flow cell 2 and 2) buffer blank run from experimental run. The processed data at all concentrations for each mAb were globally fit to a 1:1 simple Langmuir binding model to extract estimates of the kinetic (kon, koff) and affinity (KD) constants.

B-Defensin-3 = target: T5, B-Defensin-3; test: Biacore 8K non-specific binding test, antibody over immobilised protein
T5 construct: also called β-defensin
T5 sequence (P81534 23-67): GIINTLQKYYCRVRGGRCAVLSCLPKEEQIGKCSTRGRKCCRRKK
Procedure: (§1) Non-specific binding of the lead molecule to unrelated surfaces is determined by biosensor technology (Biacore 8K). Antibody is passed over SPR surfaces coated with unrelated proteins. […] Irrelevant surfaces include negatively charged protein (Soy Trypsin Inhibitor), positively charged protein (Lysozyme and β-defensin), hydrophobic (Rh-integrin a4b7), human IgG, sticky protein (Rh-CD19). Proper controls are used in this experiment. Lead is flown over two surfaces, one is a blank and the other has a molecule directly immobilized. The response unit (RU) level is determined by subtracting the blank RU from the test surface RU. […] A response unit ≥100 predicts high risks for non-specific binding to charged/hydrophobic/IgG surfaces which would create challenges during manufacturing and translate to poor PK properties.

Human IgG = test: as above
Procedure: as §1

rh-Integrin a4b7 = rh-Integrin a4b7 (UniProt P13612 34-977; P26010 20-723, limits assumed); test: as above
Procedure: as §1

rh-CD19 = target: T2, rh-CD19; test: as above
Procedure: as §1

Lysozyme = test: as above
Sequence of Lysozyme (P00698 19-147): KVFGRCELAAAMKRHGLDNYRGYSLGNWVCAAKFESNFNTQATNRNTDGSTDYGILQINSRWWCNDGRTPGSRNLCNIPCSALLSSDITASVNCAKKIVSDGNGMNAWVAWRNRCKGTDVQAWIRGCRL
Procedure: as §1

[2] = target: T3, human TMEFF2 extracellular domain (ECD); test: KinExA solution equilibrium affinity
Procedure: Serial dilutions of human TMEFF2 extracellular domain (ECD) were prepared with a constant concentration of anti-TMEFF2 mAb in 10 mM HEPES, 150 mM NaCL, 0.05% surfactant P20, pH 7.4, 0.1% BSA, and 0.02% NaN3. The reaction mixtures were incubated at RT until the binding interactions reached equilibrium. The duration of the incubation was determined using KinExA software simulation. Beads were prepared by direct covalent immobilization of TMEFF2-ECD by amine-coupling on pre-activated beads composed of bis-acrylamide/azlactone copolymer (Pierce Biotechnology, Inc.). After incubation the samples were run on the KinExA instrument to assess free antibody in the mixture by passing the mixture though the TMEFF2-modified beads, and detecting the captured antibody using a fluorescently labeled secondary antibody. The data was fit with a 1:1 binding model using the KinExA Pro software.

N-terminal CD3ε peptide = target: T6, N-terminal CD3ε peptide; test: Biacore 8K SPR, antibody captured on anti-human Ig, peptide as analyte
T6 construct: domain: N-terminal CD3ε peptide
T6 sequence (P07766 22-48): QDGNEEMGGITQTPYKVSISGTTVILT
Procedure: Kinetic rate constants were measured by SPR performed using Biacore 8K (GE Healthcare) and anti-human Fc biosensor surfaces. Anti-human immunoglobulin antibodies were covalently coupled to the surface of a CM4 sensor chip (GE Healthcare). Antibodies of interest were captured on the anti-human immunoglobulin sensor chip, followed by injection of N-terminal CD3ε peptide at various concentrations in HEPES Buffered Saline containing 0.05% surfactant P20 (Tween™ 20) and 100 ug/mL BSA. The surface was regenerated with 2 pulses injections of 30 μL of 0.8% phosphoric acid at 100 μL/min. Data reported is the difference in SPR signal between the flow cell containing the captured antibody and a reference cell without captured antibody. Additional instrumental contributions to the signal were removed by subtraction of the data from the blank injection from the reference-subtracted signal. The data were analyzed by fitting association and dissociation phases at all concentrations (global fit) with a 1:1 binding model using the Biaevaluation software (Biacore, Inc.). Data is reported as average+95% CI (Confidence Interval) which is calculated by t value for 95% CI*stdev/square root of the number of replicates.

Human CD33 ECD-HSA = target: T7, Human CD33 ECD-HSA (human); test: SPRi off-rate screen (IBIS MX96)
T7 construct: CD33 ECD fused at the C-terminus to monomeric HSA (C58S) and a six-histidine tag; also called C33W2; huCD33 ECD-HSA

Human CD33-V-HSA = target: T8, Human CD33-V-HSA (human); test: SPRi off-rate screen (IBIS MX96)
T8 construct: V domain of human CD33 fused to HSA; also called C33W3; huCD33-V-HSA

[3] = target: T9, human CD3 on human T cells (human, UniProt P07766 23-207); test: flow cytometry, primary human T cells, AF647 anti-human IgG F(ab')2 secondary
T9 construct: Native TCR-CD3 complex on cells; also called primary human T cells; human pan T cells
T9 sequence (P07766 23-207 limits assumed): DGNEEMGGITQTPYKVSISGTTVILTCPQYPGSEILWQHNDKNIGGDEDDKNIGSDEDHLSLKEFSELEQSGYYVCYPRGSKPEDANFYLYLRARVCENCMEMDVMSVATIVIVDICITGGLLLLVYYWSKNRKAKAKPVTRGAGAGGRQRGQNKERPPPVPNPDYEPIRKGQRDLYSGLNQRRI
Procedure: The 80 mutant clones were assayed for binding to primary human T cells (FIGS. 7 and 8). […] The plates were centrifuged at 300×g for 5 minutes to pellet the cells and the supernatant removed. The plate was gently vortexed briefly to resuspend the cells.

Soy Trypsin Inhibitor = target: T4, Soy Trypsin Inhibitor; test: Biacore 8K non-specific binding test, antibody over immobilised protein
Procedure: as §1

Binder | Kd [1] | koff [1] | kon [1] | response units (RU) (B-Defensin-3) | response units (RU) (Human IgG) | response units (RU) (rh-Integrin a4b7) | response units (RU) (rh-CD19) | response units (RU) (Lysozyme) | Kd [2] | Kd (N-terminal CD3ε peptide) | koff (N-terminal CD3ε peptide) | kon (N-terminal CD3ε peptide) | koff (Human CD33 ECD-HSA) | koff (Human CD33-V-HSA) | binding result [3] | response units (RU) (Soy Trypsin Inhibitor)
B1 | 0.32 nM | 0.000174 s⁻¹ | 541000 M⁻¹ s⁻¹ | 4.1 RU | 8.4 RU | 0 RU | 3.3 RU | 4.6 RU | 0.0461 nM |  |  |  |  |  |  | 
B2 |  |  |  | 6.4 RU | 7.5 RU | 0 RU | 3.4 RU | 4.2 RU | 0.0636 nM | 28.7 nM | 0.00103 s⁻¹ | 35700 M⁻¹ s⁻¹ |  |  |  | 
B3 |  |  |  |  |  |  |  |  |  |  |  |  | 5.52e-05 s⁻¹ | 3.71e-05 s⁻¹ |  | 
B4 |  |  |  |  |  |  |  |  |  |  |  |  |  |  | no binding (tested: 50 nM) | 
B5 |  |  |  | 3.1 RU | 0.4 RU | 0 RU | 0 RU | 0.2 RU |  | 26.9 nM | 0.00117 s⁻¹ | 43300 M⁻¹ s⁻¹ |  |  |  | 19.5 RU
